In US20180305450A1 (AstraZeneca / MedImmune, published 2018):
Where a chain is given by its changes, count along the chain named.

T1: recombinant biotinylated rat PAR2 extracellular residues 1-75, N-terminal AviTag, C-terminal Flag and poly … (rat, UniProt Q63645 26-75, not fully specified; biotin on the AviTag (enzymatic biotinylation))
T1 construct: range 1-75; not shown: N-terminal AviTag (Avidity LLC); C-terminal Flag and poly Histidine tags
T1 chain (looked up): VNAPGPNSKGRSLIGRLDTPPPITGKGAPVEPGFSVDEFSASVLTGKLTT

B1: PaB670103 Fab (Fab, V domains shown)
VH: EVQLLESGGGLVQPGGSLRLSCAASGFTFSSYAMNWVRQAPGKGLEWVSTISYSGSLISYADSVKGRFTISRDNSKNTLYLQMNSLRAEDTAVYYCARINNDPMDVWGQGTLVTVSS
VL: SIELTQPPSVSVSPGQTASITCSGDNLGKKYVQWYQQKPGQSPVLVIYDDSNRPSGIPERFSGSNSGNTATLTISGTQAMDEADYYCHTWDGHHTTGETNHFGGGTKLTVL
notes: Fab; also called ZZ1RCX-C09
B2: PaB670091 scFv (scFv, V domains shown)
VH: B1 VH with Y53H, S56H, S59H, Y60H, A61H, D62H
VL: B1 VL with H88Q, H93N, H94P, H101V
notes: purified scFv; also called ZZ1ODR-G02
B3: Par0067 scFv (scFv, V domains shown)
VH: B1 VH
VL: B1 VL with H88Q, H93N, H94P, H101V
notes: purified scFv, parent clone; also called ZZ15D2-D02
B4: PaB670093 scFv (scFv, V domains shown)
VH: B1 VH with S54H, G55H, S56H, Y60H
VL: B1 VL with H88Q, H93N, H94P, H101V
notes: purified scFv; also called ZZ1ODR-H04
B5: PaB670107 scFv (scFv, V domains shown)
VH: B1 VH
VL: B1 VL with T89H, D91H, G92H, H93N, H94P, T96H, G97H, H101V
notes: purified scFv; also called ZZ1RD3-D09
B6: PaB670101 scFv (scFv, V domains shown)
VH: B1 VH with N100H, N101H, D102H, M104H, V106H
VL: B1 VL with H88Q, H93N, H94P, H101V
notes: purified scFv; also called ZZ1ODO-H01
B7: PaB670106 scFv (scFv, V domains shown)
VH: B1 VH
VL: B1 VL with G92H, H93N, H94P, T95H, T96H, G97H, E98H
notes: purified scFv; also called ZZ1RD0-G02
B8: PaB670100 scFv (scFv, V domains shown)
VH: B1 VH with S54H, S56H, L57H, Y60H, D62H, S63H, K65H
VL: B1 VL with H88Q, H93N, H94P, H101V
notes: purified scFv
B9: PaB670103 scFv (scFv, V domains shown)
VH: B1 VH
VL: B1 VL
notes: purified scFv; also called ZZ1RCX-C09
B10: PaB670099 scFv (scFv, V domains shown)
VH: B1 VH with S54H, L57H, A61H, K65H, G66H
VL: B1 VL with H88Q, H93N, H94P, H101V
notes: purified scFv
B11: PaB670104 scFv (scFv, V domains shown)
VH: B1 VH
VL: B1 VL with H88Q, T89H, T95H, H101V
notes: purified scFv
B12: PaB670097 scFv (scFv, V domains shown)
VH: B1 VH with S52H, Y53H, S56H, I58H, A61H, D62H, S63H
VL: B1 VL with H88Q, H93N, H94P, H101V
notes: purified scFv; also called ZZ1ODT-E11
B13: PaB670105 scFv (scFv, V domains shown)
VH: B1 VH
VL: B1 VL with H88Q, T89H, D91H, H93N, H94P, T95H, T99H
notes: purified scFv; also called ZZ1RD0-D01
B14: PaB670095 scFv (scFv, V domains shown)
VH: B1 VH with S54H, S56H, L57H, V64H, K65H, G66H
VL: B1 VL with H88Q, H93N, H94P, H101V
notes: purified scFv; also called ZZ1ODS-H05
B15: PaB670094 scFv (scFv, V domains shown)
VH: B1 VH with S54H, S56H, L57H, Y60H, S63H, V64H
VL: B1 VL with H88Q, H93N, H94P, H101V
notes: purified scFv; also called ZZ1ODS-B08
B16: PaB670108 scFv (scFv, V domains shown)
VH: B1 VH
VL: B1 VL with H88Q, T89H, D91H, T95H, H101V
notes: purified scFv; also called ZZ1RD3-H03
B17: PaB670102 scFv (scFv, V domains shown)
VH: B1 VH with N101H, V106H
VL: B1 VL with H88Q, H93N, H94P, H101V
notes: purified scFv; also called ZZ1PXS-F08
B18: PaB670092 scFv (scFv, V domains shown)
VH: B1 VH with S54H, L57H, A61H, V64H, K65H
VL: B1 VL with H88Q, H93N, H94P, H101V
notes: purified scFv; also called ZZ1ODR-G11
B19: PaB670098 scFv (scFv, V domains shown)
VH: B1 VH with Y53H, S56H, I58H, S59H, V64H, G66H
VL: B1 VL with H88Q, H93N, H94P, H101V
notes: purified scFv; also called ZZ1ODT-G01

Target: T2, recombinant biotinylated human PAR2 extracellular domain (residues 1-75), N-terminal AviTag, C-terminal Flag … (human, UniProt P55085 26-75, biotin on the AviTag (enzymatic biotinylation))
T2 construct: also called Bio-human-PAR2 ECD; human PAR2 ECD; not shown: N-terminal AviTag (Avidity LLC); C-terminal Flag and poly Histidine tags
Test: Biacore SPR 25 C, pH 6.0
Procedure: (§1) The experiments were carried out using recombinant human, rat and cynomolgus PAR2 with an N-terminal Avi tag and C-terminal Flag-His tags.
(§2) Streptavidin was covalently immobilised to a C1 chip surface using standard amine coupling techniques at a concentration of 4 μg/ml in 10 mM Sodium acetate pH 4.5. A final streptavidin surface of approximately 30-100 RUs was achieved. Recombinant biotinylated PAR2 species (produced in-house) were titrated onto the streptavidin chip surface at 4 μg/ml in HBS-EP+ buffer to enable Fab binding at saturation (Rₘₐₓ). This low level of analyte binding ensured minimal mass transport effects.
(§3) The anti-PAR2 Fabs were serially diluted (0.39 nM-25 nM) in HBS-EP+ buffer pH 7.4 or MES-BS-EP+ pH 6.0 buffer or in MES-BS-EP+ pH 5.6 buffer and flowed over the chip at 50 μl/min, with 3 minutes association and up to 30 minutes dissociation. Multiple buffer-only injections were made under the same conditions to allow for double reference subtraction of the final sensorgram sets, which were analysed using the BiaEval software (version 2.0.1). The chip surface was fully regenerated with pulses of 4 M MgCl₂.

T2 sequence (P55085 26-75): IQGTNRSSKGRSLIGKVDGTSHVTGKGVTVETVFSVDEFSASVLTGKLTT

| Kd | koff | kon | Binder |
| --- | --- | --- | --- |
| 1.8 nM | 0.000607 s⁻¹ | 336000 M⁻¹ s⁻¹ | B1 |

Target: T1, recombinant biotinylated rat PAR2 …
Test: Biacore SPR 25 C, pH 6.0
Procedure: as §1, §2, §3

| Kd | koff | kon | Binder |
| --- | --- | --- | --- |
| 10.2 nM | 0.00542 s⁻¹ | 531000 M⁻¹ s⁻¹ | B1 |

Target: T2, recombinant biotinylated human PAR2 …
Test: Biacore SPR 25 C, pH 7.4
Procedure: as §1, §2, §3

| Kd | koff | kon | Binder |
| --- | --- | --- | --- |
| 0.0325 nM | 0.000111 s⁻¹ | 3.52e+06 M⁻¹ s⁻¹ | B1 |

Target: T1, recombinant biotinylated rat PAR2 …
Test: Biacore SPR 25 C, pH 7.4
Procedure: as §1, §2, §3

| Kd | koff | kon | Binder |
| --- | --- | --- | --- |
| 0.184 nM | 0.000558 s⁻¹ | 3.04e+06 M⁻¹ s⁻¹ | B1 |

Target: T2, recombinant biotinylated human PAR2 …
Test: HTRF competition with Par0067 IgG, scFv
Procedure: (§4) 5 μl/well of the appropriate pH 4.44 nM Par0067 IgG solution was added to all wells of the relevant assay plate (pH 7.4 and pH 6.0).
(§5) Test scFv Preparation/Addition: [0172] a) For parallel single point HTS of crude un-purified bacterial lysate scFv samples at both pH 7.4 and pH 6.0 samples were first pre-diluted to 40% of their neat concentration using either pH 7.4 or pH 6.0 assay buffer as appropriate. Subsequently 5 μl of 40% pre-diluted sample was then transferred into the appropriate assay (pH 7.4 or pH 6.0) in order to give a final assay sample concentration of 10.0% (in the 20 μl final assay volume). The parent Par0067 scFv was included in all HTS experiments as a control as were specific pH dependent antibodies as those became available (for benchmarking). […] Duplicate 11 point 1:3 serial dilutions then were prepared on 384 well polypropylene Greiner plates in each of the two assay buffers (pH 7.4 & 6.0). 5 μl per well of each serial dilution was transferred from the relevant pH scFv dilution plate to the corresponding assay plate (pH 7.4 and pH 6.0). 5 μl of the appropriate pH assay buffer was added to the total and non-specific wells. The parent Par0067 purified scFv was included in all multipoint dose response IC₅₀ experiments as a control as were specific pH dependent purified scFv as those became available (for benchmarking).
(§6) For multipoint dose response curves % Specific Binding values were plotted versus test purified antibody concentration (scFv or IgG). IC₅₀ values were determined via a sigmoidal dose response inhibition variable slope curve fit (4 parameter logistic equation) using Graphpad Prism Software.

| Fold IC50 (pH 6.0 v pH 7.4) | Fold IC50 pH 7.4 (Variant v Par0067) | Binder |
| --- | --- | --- |
| 3.9 fold | 7.6 fold | B2 |
| 1.1 fold | 1 fold | B3 |
| 3.2 fold | 5.6 fold | B4 |
| 10.9 fold | 12.9 fold | B5 |
| 3.4 fold | 44.5 fold | B6 |
| 3.8 fold | 94.8 fold | B7 |
| 3.4 fold | 6.2 fold | B8 |
| 7.3 fold | 8.5 fold | B9 |
| 4.8 fold | 3.9 fold | B10 |
| 9.3 fold | 6.6 fold | B11 |
| 3.6 fold | 6.6 fold | B12 |
| 6.7 fold | 22.5 fold | B13 |
| 5.7 fold | 6.1 fold | B14 |
| 3.3 fold | 22 fold | B15 |
| 5.1 fold | 8.8 fold | B16 |
| 2.6 fold | 1.6 fold | B17 |
| 4.7 fold | 12.5 fold | B18 |
| 3.2 fold | 20 fold | B19 |

Target: T2, recombinant biotinylated human PAR2 …
Test: HTRF competition with Par0067 IgG, pH 6.0, scFv
Procedure: as §4, §5, §6

| IC50 | Binder |
| --- | --- |
| 98.9 nM | B2 |
| 3.6 nM | B3 |
| 58.7 nM | B4 |
| 464 nM | B5 |
| 496 nM | B6 |
| 1190 nM | B7 |
| 69 nM | B8 |
| 204 nM | B9 |
| 62.4 nM | B10 |
| 202 nM | B11 |
| 77.9 nM | B12 |
| 496 nM | B13 |
| 113 nM | B14 |
| 237 nM | B15 |
| 149 nM | B16 |
| 13.7 nM | B17 |
| 194 nM | B18 |
| 210 nM | B19 |

Target: T2, recombinant biotinylated human PAR2 …
Test: HTRF competition with Par0067 IgG, pH 7.4, scFv
Procedure: as §4, §5, §6

| IC50 | Binder |
| --- | --- |
| 25.2 nM | B2 |
| 3.3 nM | B3 |
| 18.6 nM | B4 |
| 42.7 nM | B5 |
| 147 nM | B6 |
| 313 nM | B7 |
| 20.3 nM | B8 |
| 27.9 nM | B9 |
| 12.9 nM | B10 |
| 21.7 nM | B11 |
| 21.8 nM | B12 |
| 74.4 nM | B13 |
| 20 nM | B14 |
| 72.5 nM | B15 |
| 29.1 nM | B16 |
| 5.3 nM | B17 |
| 41.1 nM | B18 |
| 65.9 nM | B19 |
